Earlier results in patent publication US20210244796A1, “COMPOSITIONS IN THE FORM OF AN INJECTABLE AQUEOUS SOLUTION COMPRISING AMYLIN AN AMYLIN RECEPTOR AGONIST OR AN AMYLIN ANALOG, AT LEAST ONE IONIC SPECIES AND AN AMPHOIPHILIC COMPOUNDS CONTAINING HYDRIPHOBIC RADICALS” (ADOCIA, priority 2018, published 2021).
Where two headings read alike, the source gives them in different places.

pH of the solution above which the peptide is described as shining (pramlintide formulated at acidic pH) | Molecule | Time for which amylin is stable (acidic pH) | Time for which amylin is stable (neutral pH)
– | Amylin: 37 amino acid peptide co-stored and co-secreted with insulin (KCNTATCATQRLANFLVHSSNNFGAILSSTNVGSNTY; Islet amyloid polypeptide; UniProt P10997 34-70, looked up) | about fifteen | less than one
greater than 5.5 | CC[C@H](C)[C@H](NC(=O)[C@@H]1CCCN1C(=O)CNC(=O)[C@H](Cc1ccccc1)NC(=O)[C@H](CC(N)=O)NC(=O)[C@H](CC(N)=O)NC(=O)[C@H](CO)NC(=O)[C@H](CO)NC(=O)[C@H](Cc1c[nH]cn1)NC(=O)[C@@H](NC(=O)[C@H](CC(C)C)NC(=O)[C@H](Cc1ccccc1)NC(=O)[C@H](CC(N)=O)NC(=O)[C@H](C)NC(=O)[C@H](CC(C)C)NC(=O)[C@H](CCCNC(=N)N)NC(=O)[C@H](CCC(N)=O)NC(=O)[C@@H](NC(=O)[C@H](C)NC(=O)[C@@H]1CSSC[C@H](NC(=O)[C@@H](N)CCCCN)C(=O)N[C@@H](CC(N)=O)C(=O)N[C@@H]([C@@H](C)O)C(=O)N[C@@H](C)C(=O)N[C@@H]([C@@H](C)O)C(=O)N1)[C@@H](C)O)C(C)C)C(=O)N[C@@H](CC(C)C)C(=O)N1CCC[C@H]1C(=O)N1CCC[C@H]1C(=O)N[C@H](C(=O)N[C@@H](CC(N)=O)C(=O)N[C@H](C(=O)NCC(=O)N[C@@H](CO)C(=O)N[C@@H](CC(N)=O)C(=O)N[C@H](C(=O)N[C@@H](Cc1ccc(O)cc1)C(N)=O)[C@@H](C)O)C(C)C)[C@@H](C)O [pramlintide, reference compound] | – | –
